Earlier results on 1 substance are cited in publication PMC7226498.

The target of the series is p53 OD (Homo sapiens) (UniProt P04637).

p53 OD, sequence (P04637 325-356): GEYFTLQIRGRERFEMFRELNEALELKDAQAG

For the substance p53 OD (from UniProt P04637), the Kd was 1 nM.
